Source: patent US5538946A, “Hirudin derivatives with delayed action” (Hoechst Aktiengesellschaft, priority 1988, dated 1996)

Target: thrombin (Homo sapiens, UniProt P00734)
Assay: In vitro thrombin inhibition assay (coagulation time) as in Example 2, with re-use of isolated Sepharose-hirudin
Type: biochemical
Details: isolated from treated plasma, washed with 1 to 1.5 M NaCl, employed again
Experimental: Female and male Wistar rats with a body weight of about 300 g are anesthetized with ethylurethane (1.5 g/kg i.p.). 1000 AT-U/kg of a hirudin derivative or authentic `Leu-Thr-hirudin`, which has been dissolved in physiological saline, are administered i.v. to the rats. A catheter is implanted in the carotid of the animals for blood sampling. Blood is taken from the animals and treated with citrate for the determination of anti-thrombin activity. 0.1 ml of the blood treated in this way is mixed with 0.2 ml of Tris/HCl buffer (0.1 mol/1; pH 7.4) and preincubated at 37° C. After addition of 0.1 ml of a thrombin solution (10 NIH-U/ml) the coagulation time is determined using a Schnitger and Gross coagulometer. In parallel with the experiment a calibration plot is constructed using reference plasma, from which the particular plasma hirudin or plasma hirudin derivative concentration is read off.
The protein coupling yield is 5 %. The biological activity is determined in vitro as in Example 2. The Sepharose-hirudin is isolated from the treated plasma, washed with a 1 to 1.5 M NaCl solution and again employed in the inhibition assay.

Sepharose-hirudin: hirudin immobilised on activated CH-Sepharose 4 B (Pharmacia)
measured activity on re-use in the inhibition assay: within the limit of error of the first measurement
